Data reported in patent CN111320694A.

Target: GPC3蛋白 (Glypican 3 protein, recombinant) (UniProt P51654)
Assay: sandwich ELISA: GPC3 polyclonal antibody coated, GPC3 protein titrated, 0.2μg/mL GN2-Luc as detector, luminescence

Sequence of UniProt P51654 (P51654 25-559 limits assumed): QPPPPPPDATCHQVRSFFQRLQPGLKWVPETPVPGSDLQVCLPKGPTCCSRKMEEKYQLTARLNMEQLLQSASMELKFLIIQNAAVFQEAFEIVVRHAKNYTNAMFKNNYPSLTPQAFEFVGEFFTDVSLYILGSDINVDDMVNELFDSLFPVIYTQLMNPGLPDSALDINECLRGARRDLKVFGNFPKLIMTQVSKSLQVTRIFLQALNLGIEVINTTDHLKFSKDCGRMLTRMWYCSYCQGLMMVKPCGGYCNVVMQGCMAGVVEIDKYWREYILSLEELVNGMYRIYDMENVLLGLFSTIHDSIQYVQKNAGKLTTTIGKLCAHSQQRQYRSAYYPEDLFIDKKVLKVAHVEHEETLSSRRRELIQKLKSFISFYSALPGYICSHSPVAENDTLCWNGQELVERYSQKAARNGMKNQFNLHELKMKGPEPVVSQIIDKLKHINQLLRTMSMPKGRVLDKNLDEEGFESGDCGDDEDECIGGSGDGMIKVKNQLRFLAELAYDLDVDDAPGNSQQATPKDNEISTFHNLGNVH

EC20 (GPC3 concentration at 20% of the strongest luminescence): 0.0539 µg/mL
EC80 (GPC3 concentration at 80% of the strongest luminescence): 0.219 µg/mL
B1: 融合蛋白GN2-Luc (GN2-Nano-luciferase fusion protein) (protein, part only; not given: junction and purification tag, not shown: small tags and cut ends)
chain, part: QVQLVESGGGLVQPGGSLRLSCAASGFTLDAYAIGWFRQAPGKEREGVSYITSGTGTTLYADSVKGRFTISRDNAKNTVYLQMNSLKPEDTAVYFCTTLKRTTAGGWPIPGRIGGQGTQVTVSS
